These results are taken from article PMC11187117, “Structure of the endosomal CORVET tethering complex” (Nature Communications, 2024).

Sequences and labels used below:
T1: Vps8 with 3xFLAG tag (CORVET subunit) (yeast, UniProt P39702 1-1274)
T1 construct: UniProt P39702 printed for its AlphaFold model
T1 sequence: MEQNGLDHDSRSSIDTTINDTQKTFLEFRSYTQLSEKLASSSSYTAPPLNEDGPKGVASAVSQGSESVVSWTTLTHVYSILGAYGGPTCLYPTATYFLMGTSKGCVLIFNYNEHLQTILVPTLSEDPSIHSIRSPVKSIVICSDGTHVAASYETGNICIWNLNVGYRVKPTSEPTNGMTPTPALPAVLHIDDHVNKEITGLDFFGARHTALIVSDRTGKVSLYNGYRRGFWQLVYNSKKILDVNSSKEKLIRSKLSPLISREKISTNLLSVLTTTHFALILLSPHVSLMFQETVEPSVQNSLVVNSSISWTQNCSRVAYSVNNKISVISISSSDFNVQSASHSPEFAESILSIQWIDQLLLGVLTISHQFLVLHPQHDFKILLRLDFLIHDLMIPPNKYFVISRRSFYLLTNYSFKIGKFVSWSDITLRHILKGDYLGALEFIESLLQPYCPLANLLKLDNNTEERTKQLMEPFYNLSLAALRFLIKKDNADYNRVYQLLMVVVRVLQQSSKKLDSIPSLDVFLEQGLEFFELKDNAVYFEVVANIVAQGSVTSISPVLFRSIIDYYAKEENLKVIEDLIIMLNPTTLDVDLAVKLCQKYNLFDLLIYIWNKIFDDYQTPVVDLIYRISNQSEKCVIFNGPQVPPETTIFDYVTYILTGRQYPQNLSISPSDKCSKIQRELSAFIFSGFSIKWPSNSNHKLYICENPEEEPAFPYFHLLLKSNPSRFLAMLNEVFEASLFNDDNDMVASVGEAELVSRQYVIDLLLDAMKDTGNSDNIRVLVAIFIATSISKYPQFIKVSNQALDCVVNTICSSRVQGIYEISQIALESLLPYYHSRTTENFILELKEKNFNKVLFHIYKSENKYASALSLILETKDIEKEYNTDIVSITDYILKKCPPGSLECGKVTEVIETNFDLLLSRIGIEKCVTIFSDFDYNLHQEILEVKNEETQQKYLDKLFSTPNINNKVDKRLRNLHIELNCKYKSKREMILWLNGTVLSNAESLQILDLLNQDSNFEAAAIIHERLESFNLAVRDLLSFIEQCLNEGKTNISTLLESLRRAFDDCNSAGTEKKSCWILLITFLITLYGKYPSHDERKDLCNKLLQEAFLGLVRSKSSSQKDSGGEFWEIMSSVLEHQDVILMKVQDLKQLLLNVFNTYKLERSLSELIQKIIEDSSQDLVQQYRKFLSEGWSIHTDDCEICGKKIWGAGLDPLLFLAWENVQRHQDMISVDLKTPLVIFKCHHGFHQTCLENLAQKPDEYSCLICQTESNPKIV

B1: Vps3 (CORVET subunit) (natural protein, yeast)
chain: MVKKKTNNDKGKEVKENEGKLDIDSESSPHERENDKKKTEDDSLRATESEETNTHNANPNETVRADKFSQEESRPIEDSPHTDKNTAQESCQPSSAEDNVINTDITSLNEKTSTNDEQEKGLPLKISEGPFTISTLLDNVPSDLIYTCCEAYENHIFLGTTTGDLLHYFELERGNYMLVSQTKFDAESNSKIDKILLLPKVEGALILCDNELVLFILPEFAPRPNTTRLKGISDVVICNFSRSSKAYRIYAFHAEGVRLLKISADSLVLTKAFNFKLIDKACAHEETLMVSKLNSYELINLKSSQVIPLFRISETDEDLEPIITSFNEQSEFLVCSGGGSYDSGAMALVVNHHGDIIKGTIVLKNYPRNVIVEFPYIIAESAFQSVDIYSALPSEKSQLLQSITTSGSDLKISKSDNVFTNTNNSEEFKEKIFNKLRLEPLTHSDNKFRIERERAFVEESYEEKTSLIVYNNLGIHLLVPTPMVLRFTSCEESEIDNIEDQLKKLAKKDLTKFEHIEAKYLMSLLLFLMTLHYDHIEDEVMKKWCDFSDKVDIRILFYMFGWKVYSEIWCFHGLINIVERLKSLKLTNKCENILKMLLMMKNELKKKNKTGLLTNDFDDIMKTIDITLFKLRLEKKETITVDMFERESYDEIIREINLHDDKLPRIELLIEIYKEKGEYLKALNLLREAGDYISLVSFIEENLKKLPEDYIKERIADDLLLTLKQGDENTEECAIKKVLKILDMACINKNDFLNKIPAEETSLKVSFIEQLGVQNSNDSKFLFNYYLAKLREIINQSNIWSILGDFIKEYKDDFAYDKTDITNFIHIKLKHSLQCENFSKYYEKCENLKSENEKDDEFINFTFDEISKIDKEHILTLLFFPNELTNWVSSEELLKIYLSFNDFRSVEKYIGKQNLVAVMKQYLDISSLNYSVELVTNLLQRNFELLDDTDIQLKILETIPSVFPVQTISELLLKVLIKYQEKKEESNLRKCLLKNQISISDELSRNFDSQG
notes: UniProt P23643 printed for its AlphaFold model; N-terminal half (with the β-propeller) was removed from the deposited model; source: yeast lysate in the Vps8-ALFA pull-downs
B2: Vps11 (CORVET and HOPS core subunit) (natural protein, yeast)
chain: MSLSSWRQFQLFENIPIRDPNFGGDSLLYSDPTLCAATIVDPQTLIIAVNSNIIKVVKLNQSQVIHEFQSFPHDFQITFLKVINGEFLVALAESIGKPSLIRVYKLEKLPNREQLYHSQVELKNGNNTYPISVVSISNDLSCIVVGFINGKIILIRGDISRDRGSQQRIIYEDPSKEPITALFLNNDATACFAATTSRILLFNTTGRNRGRPSLVLNSKNGLDLNCGSFNPATNEFICCLSNFIEFFSSSGKKHQFAFDLSLRKRIFCVDKDHILIVTEETGVPTTSISVNELSPTIINRIFIIDAKNKIISLNFVVSSAIIDIFSTSQSGKNITYLLTSEGVMHRITPKSLENQINIIIQKELYPFALQLAKQHSLSPLDVQEIHKKYGDYLFKKGLRKEATDQYIQCLDVVETSEIISKFGVKEVPDPESMRNLADYLWSLIKNSISQRDHVTLLLIVLIKLKDVEGIDTFIQHFDRKGIWNEGVVMDDMDDVTFFYSDNDFFDLDLILELMKESDFKRLSYRLAKKYSKDSLIIVDILLNLLHNPVKAIKYIKSLPIDETLRCLVTYSKKLLEESPNETNALLIEVFTGKFKPSTFEVDLDRRDTTGDFSENIRTVFYSYKTFFNYMNSNGTSDAMSESSEASHEHEEPTYHPPKPSIVFSSFVTKPFEFVVFLEACLACYQQYEGFDEDRQVILTTLYDLYLNLAQNDVPERIDDWRSRATGVLRESNKLVYSAASNNTSKRVDNSIMLLISHMDQSSASAKDKTKIDIASFANDNPEMDLLSTFRAMTLNEEPSTCLKFLEKYGTEEPKLLQVALSYFVSNKLIFKEMGGNEVLKEKVLRPIIEGERMPLLDIIKALSRTNVAHFGLIQDIIIDHVKTEDTEIKRNEKLIESYDKELKEKNKKLKNTINSDQPLHVPLKNQTCFMCRLTLDIPVVFFKCGHIYHQHCLNEEEDTLESERKLFKCPKCLVDLETSNKLFEAQHEVVEKNDLLNFALNSEEGSRDRFKVITEFLGRGAISYSDITI
notes: Vps11, yeast, core subunit shared by CORVET and HOPS

In assay [1] the target is B2. Briefly: cryo-EM structure; single-particle cryo-EM of the hexameric CORVET co-expressed in yeast and purified by 3xFLAG on Vps8 and SEC; about 0.8 mg/ml; consensus map 4.6 Å, local refinements to 3.8 Å. The note with it: both partners purified.
Assay [2] addresses T1, Vps8 with 3xFLAG tag (CORVET subunit). Described as above. The note with it: both partners purified.

As to B1, the binding result in assay [1] was “binds”.

In the case of B2, the binding result in assay [2] is reported as “binds”.
